Laboratory results as given in patent US20220152100A1, “METHODS FOR CONTROLLED ACTIVATION OR ELIMINATION OF THERAPEUTIC CELLS” (Bellicum Pharmaceuticals, Inc., priority 2014, published 2022).
Where a SMILES comes first, the peptide text is derived from it. The star is where a group is joined. Cbz = O=C(OCc1ccccc1)*; CH2F = FC*

Legend:
[1] = system: EBV-specific CTL lines (EBV-CTL); experiment: CID-induced elimination/apoptosis of transduced EBV-CTLs (GFP, annexin V/7-AAD flow cytometry); format: cell-based, human; conditions: 100 μM for 1 hour prior to adding CID
[2] = system: HEK293T/16 cells; experiment: SEAP-based surrogate killing assay of iCasp9 mutants; format: cell-based, human; conditions: in words, versus wild type
Description: Early passage HEK293T/16 cells (ATCC, Manassas, Va.) were maintained in IMDM, GlutaMAX™ (Life Technologies, Carlsbad, Calif.) supplemented with 10% FBS, 100 U/mL penicillin, and 100 […] until transfection in a humidified, 37° C., 5% CO2/95% air atmosphere. Cells in logarithmic-phase growth were transiently transfected with 800 ng to 2 μg of expression plasmid encoding iCasp9 mutants and 500 ng of an expression plasmid encoding SRα promoter driven SEAP per million cells in 15-mL conical tubes. […] GeneJammer® Transfection Reagent at a ratio of 3 μl per ug of plasmid DNA was used to transiently transfect HEK293T/16 cells in the absence of antibiotics. 100 μl or 2 mL of the transfection mixture was added to each well in 96-well or 6-well plate, respectively.
Briefly, after 65° C. heat denaturation for 45 minutes to reduce background caused by endogenous (and serum-derived) alkaline phosphatases that are sensitive to heat, 5 μl of supernatants was added to 95 μl of PBS and added to 100 μl of substrate buffer, containing 1 μl of 100 mM 4-methylumbelliferyl phosphate (4-MUP; Sigma, St. Louis, Mo.) re-suspended in 2 M diethanolamine. Hydrolysis of 4-MUP by SEAP produces a fluorescent […] with excitation/emission (355/460 nm), which can be easily measured. Assays were performed in black opaque 96-well plates to minimize fluorescence leakage between wells. […] of the mixture was seeded onto each well of a 96-well plate. […] For the assay, 4-methylumbelliferyl phosphate substrate was hydrolyzed by SEAP to 4-methylumbelliferon, a metabolite that can be excited with 364 nm and detected with an emission filter of 448 nm. Since SEAP is used as a marker for cell viability, reduced SEAP reading corresponds with increased iCaspase-9 activities.

[3] = system: PG13; format: cell-based
[4] = system: Primary T cells; experiment: AP1903-dependent cytotoxicity in primary T cells transduced with iCasp9 variants (CD3+CD19+ flow cytometry); format: cell-based, human; conditions: AP1903 at Day 0 and day 4, within 10 days
Description: The effects of various caspase polypeptides at mostly single copy in primary T cells was assayed. This may reflect more accurately how these suicide genes will be used therapeutically.
Primary T cells from healthy donors (n=6) were transduced with retrovirus encoding mutant or wild-type iCasp9 or iCasp9-D330A, and the ΔCD19 cell surface marker. Following transduction, iCasp9-transduced T cells were purified using CD19-microbeads and a magnetic column.

Row | Molecule | effect on basal / catalytic activity [2] | also measured
1 | COC(=O)C[C@H](NC(=O)[C@H](C)NC(=O)[C@@H](NC(=O)OCc1ccccc1)C(C)C)C(=O)CF [zVAD-fmk] (Cbz-Val-Ala-Asp(OMe)-CH2F) | – | effect on CID-induced apoptosis [1]: inhibited
2 | D330E: chimeric modified Caspase-9 polypeptide, SEQ ID NO: 188 (protein) VDGFGDVGALESLRGNADLAYILSMEPCGHCLIINNVNFCRESGLRTRTGSNIDCEKLRRRFSSLHFMVEVKGDLTAKKMVLALLELARQDHGALDCCVVVILSHGCQASHLQFPGAVYGTDGCPVSVEKIVNIFNGTSCPSLGGKPKLFFIQACGGEQKDHGFEVASTSPEDESPGSNPEPDATPFQEGLRTFDQLEAISSLPTPSDIFVSYSTFPGFVSWRDPKSGSWYVETLDDIFEQWAHSEDLQSLLLRVANAVSVKGIYKQMPGCFNFLRKKLFFKTSASRA | less basal activity than wild type Caspase-9 | CD19 mean fluorescence intensity (MFI) ([3]; PG13 cross-transduced five times): enhanced CD19 mean fluorescence intensity; viral titers ([3]; upon HAT media treatment, HT1080 cells): higher viral titers
3 | D330G: chimeric modified Caspase-9 polypeptide (protein) VDGFGDVGALESLRGNADLAYILSMEPCGHCLIINNVNFCRESGLRTRTGSNIDCEKLRRRFSSLHFMVEVKGDLTAKKMVLALLELARQDHGALDCCVVVILSHGCQASHLQFPGAVYGTDGCPVSVEKIVNIFNGTSCPSLGGKPKLFFIQACGGEQKDHGFEVASTSPEDESPGSNPEPDATPFQEGLRTFDQLGAISSLPTPSDIFVSYSTFPGFVSWRDPKSGSWYVETLDDIFEQWAHSEDLQSLLLRVANAVSVKGIYKQMPGCFNFLRKKLFFKTSASRA | less basal activity than wild type Caspase-9 | –
4 | F404Y: chimeric modified Caspase-9 polypeptide (protein) VDGFGDVGALESLRGNADLAYILSMEPCGHCLIINNVNFCRESGLRTRTGSNIDCEKLRRRFSSLHFMVEVKGDLTAKKMVLALLELARQDHGALDCCVVVILSHGCQASHLQFPGAVYGTDGCPVSVEKIVNIFNGTSCPSLGGKPKLFFIQACGGEQKDHGFEVASTSPEDESPGSNPEPDATPFQEGLRTFDQLDAISSLPTPSDIFVSYSTFPGFVSWRDPKSGSWYVETLDDIFEQWAHSEDLQSLLLRVANAVSVKGIYKQMPGCYNFLRKKLFFKTSASRA | – | killing of target T cells [4]: can kill target T cells indistinguishable from wild type Caspase-9 polypeptide or D330A within 10 days
5 | D330V: chimeric modified Caspase-9 polypeptide (protein) VDGFGDVGALESLRGNADLAYILSMEPCGHCLIINNVNFCRESGLRTRTGSNIDCEKLRRRFSSLHFMVEVKGDLTAKKMVLALLELARQDHGALDCCVVVILSHGCQASHLQFPGAVYGTDGCPVSVEKIVNIFNGTSCPSLGGKPKLFFIQACGGEQKDHGFEVASTSPEDESPGSNPEPDATPFQEGLRTFDQLVAISSLPTPSDIFVSYSTFPGFVSWRDPKSGSWYVETLDDIFEQWAHSEDLQSLLLRVANAVSVKGIYKQMPGCFNFLRKKLFFKTSASRA | less basal activity than wild type Caspase-9 | –
6 | D330S: chimeric modified Caspase-9 polypeptide (protein) VDGFGDVGALESLRGNADLAYILSMEPCGHCLIINNVNFCRESGLRTRTGSNIDCEKLRRRFSSLHFMVEVKGDLTAKKMVLALLELARQDHGALDCCVVVILSHGCQASHLQFPGAVYGTDGCPVSVEKIVNIFNGTSCPSLGGKPKLFFIQACGGEQKDHGFEVASTSPEDESPGSNPEPDATPFQEGLRTFDQLSAISSLPTPSDIFVSYSTFPGFVSWRDPKSGSWYVETLDDIFEQWAHSEDLQSLLLRVANAVSVKGIYKQMPGCFNFLRKKLFFKTSASRA | less basal activity than wild type Caspase-9 | –
